{"source": "the DeepSol protein solubility set", "assay": "soluble on expression in E. coli; label from the status in PepcDB or PDB records", "data": [{"sequence": "MSLDLAADILVADAHMHTNPTRGLGAREVARRFRREGGWFAALLTLTTWSYGLAPTGVEAYRRMYEIHLRECRAAREEGLRVACFAGIHPAEVDRMIDKHRQPPEKALETALEAVEVLRRLCREGAIDGVGEVGRQHYRTSPLRVAIAEVVLEEAAAAALEEGCLLQLHLENEGPATVETVDRILRRAGATGARRGMVIFHHATLRVAKEAVARGYNATIPGVPKLLEHAAANEPPDYMVESDYLDDPARPGAVVEPWKMAQKLREIASRTPETREWVRRTNIDLVERVFQASPPEGHHHHHH", "values": [{"measurement": "soluble on expression in E. coli", "value": "soluble"}]}, {"sequence": "GPGSMSFAQNGTAPSTPAQQSKPEPDASPVAGEGSTSGRCAFDPEALRNLIVNYLPPLMNEAQVYELFGQFGRIESVKIIYDKITGESRGYGFVKYYFFFSATYAVSCLNRFEIGGKKLKVAYANAPAAKEAYDMLRLSAVALSVQQQQAMQSMYYHQMVLAQEQQGASAASSVAASAPMVGGADYGPYMNRVGGGYAMRQRESGAGYAQGMYPGMVAGGSVYLAGPFASGSRIVTPAIAPIGF", "values": [{"measurement": "soluble on expression in E. coli", "value": "not soluble"}]}, {"sequence": "GPLGSMTGPSVHDRALGAFLGLAVGDALGATVEFMTKGEIAQQYGIHRKMTGGGWLRLKPGQITDDTEMSLALGRSLAAKGTLDVADICEEFALWLKSRPVDVGNTCRRGIRRYMHEGTTTAPYSEGDAGNGAAMRCLPAALATLGHPADLEPWVLAQARITHNHPLSDAACLTLGRMVHHLIGGRGMKACREEANRLVHQHRDFHFEPYKGQSSAYIVDTMQTVLHYYFVTDTFKSCLIQTVNQGGDADTTGALAGMLAGATYGVDDIPSGWLSKLDMKVEREIRRQVDALLALAGLD", "values": [{"measurement": "soluble on expression in E. coli", "value": "soluble"}]}, {"sequence": "IAPTAQKLSKIYGVRSSIIIGQAALDSHFGSTLLASKYHNLFSIEASPGQGAVRLKSHEYKNGRWQEVTNRYLVYESWKESLYDYMAILHGNKIWDKALYTTMMTSSGYKTVARALQAAGFNSDPNYADKLIAVIEENNLTDYDK", "values": [{"measurement": "soluble on expression in E. coli", "value": "not soluble"}]}, {"sequence": "MGSDKIHHHHHHMVPMTRFDSATEVVRVGENRYAVELDPGYLIGTAMNGGYLMTVLQRSALAESDHLHAVSSSYHFHRPASSGPAEIETRVLKRGRTVTTVQTTLFQEGRTILTGTLATATLDPHAEPRYAAPQPAIPPQHQCRRVDPRQSHLPDDGFLARVDVDFSPDSYAALARERTVTTPELCGYVDLSARDGGSAKDPLAFLPLAVDALPPIVSLLVDWSWAPTVELTWHLRAIPEPGPLAFRSTCALVSDGWFDENVDLWDARGRLVAQSRQLARVGR", "values": [{"measurement": "soluble on expression in E. coli", "value": "not soluble"}]}, {"sequence": "MPLSYYEKGIMYKRKNFMGPAVKCFEEARKLEEKVGSKASLELAKIYAYFKDYEEAYKYCKEAISKSNYIEAYYLMVRILLLSNTPINEILKKAGKVKIHNSLLADIFCFEGNYEVALKIIDTCLKEDEVTRDLELIKIKCLLKLKQYDKCKDYIDNFSQSYLYFFKIRMYKVICCVLLEEYRLAWKIIDEFDYKKLSLYNKNKLKAYINFYNAALDIRGITPHENDEEYYSCIFEIIDILLATKEIKCLKKLIQTISKYDGGYLELAELYSNYGYVSEAKKLIVLYIKKFEVVNNKMIYILQKLEHHHHHH", "values": [{"measurement": "soluble on expression in E. coli", "value": "not soluble"}]}, {"sequence": "MNMYSMPGYFQNMPTIGKELVNPNPENEQEIKAVESDIHESIKKALDAGITSEEKLNERGQLSAMQRINALIDPGTWCPLNSLFNPENNKFGTTNIVNGLGRVDGKWVYIVASDNKKMAGAWVPGQAENLIRCSDAAKMMHLPLIYLLNCSGVEFPNQDKVYPNRRGGGTPFFRNSELNQLGIPVIVGIYGTNPAGGGYHSISPTILIAHQDANMAVGGAGILSGMNPKGYIDDEAAEQIIAAQIENSKLKVPAPGSVPIHYDETGFFREVYQNDLGVIDGIKKYISYLPAYNLEFFRVDTPKAPQLPAEDLYSIIPMNQKRPYDIYEVIARLFDNSEFSEYKKGYGPEMVTGLAKVNGLLVGVIANVQGLLMNYPEYKQNSVGIGGKLYRQGLIKMNEFVTLCARDRIPLIWLQDTTGIDVGDEAEKAELLGLGQSLIYSIENSKLPSLEITIRKASAAAHYVLGGPQGNNTNVFSIGTGACEYYVMPGETAANAMYSRKLVKAKKAGEDLQPIIGKMNDMIQMYTDKSRPKYCTEKGMVDEIVDMTEVRPYIQAFTEAAYQNPQSICPMHQMLTPRSTREFETFGK", "values": [{"measurement": "soluble on expression in E. coli", "value": "soluble"}]}]}
